The record followed here is doi:10.1101/492215.

The target of the test is HTT^1-3144 Q23, C-terminally FLAG-tagged (human). As to the kind of experiment: SEC-MALS. A general note: In gel filtration, larger molecules generally elute earlier.

In the case of “HTT^1-3144 Q23, C-terminally FLAG-tagged (natural protein)”, the stoichiometry N (usually a count of units in the complex or per binding partner) was determined as 2.
